The results in this text go back to article PMC3014896.

Assay [1] concerns the target HLMWb5 L51I mutant (human) (UniProt P00167).
Assay [2] deals with full-length form of human cytochrome b5 (human) (UniProt P00167).
Assay [3] deals with HLMWb5 G67S mutant (human) (UniProt P00167).
Assay [4] has as its target HLMWb5 A59V mutant (human) (UniProt P00167).
The target of assay [5] is HLMWb5 A59S mutant (human) (UniProt P00167).
The target of assay [6] is HLMWb5 G67A mutant (human) (UniProt P00167).
Assay [7] addresses heme-binding soluble domain of human liver microsomal cytochrome b5 with an NH2-terminal 6xHis-tag extension (HLMWb5) (human) (UniProt P00167).
The target of assay [8] is HLMWb5 L51I mutant (human) (UniProt P00167). This is another data set of the same source.
Assay [9] deals with full-length form of human cytochrome b5 (human) (UniProt P00167). This is another data set of the same source.
In assay [10] the target is HLMWb5 G67S mutant (human) (UniProt P00167). The source holds these as a separate data set.
Assay [11] concerns the target HLMWb5 A59V mutant (human) (UniProt P00167). The source holds these as a separate data set.
The target of assay [12] is HLMWb5 A59S mutant (human) (UniProt P00167). The source holds these as a separate data set.
Assay [13] addresses HLMWb5 G67A mutant (human) (UniProt P00167). This is another data set of the same source.

poly-L-lysine (peptide) returned a midpoint potential (vs. SHE) by spectroscopic redox titration with 200 μM poly-L-lysine (-9.5 mV without poly-L-lysine) in assay [1] of 10.5 mV. For the same substance, in [2], the midpoint potential (vs. SHE) by spectroscopic redox titration with 200 μM poly-L-lysine, 0.5% Triton X-100 (-2.6 mV without poly-L-lysine) amounted to 8.7 mV. Moreover, the midpoint potential (vs. SHE) by spectroscopic redox titration with 200 μM poly-L-lysine (-7.3 mV without poly-L-lysine) in assay [3] was found to be 14.2 mV. In assay [4], this substance registered a midpoint potential (vs. SHE) by spectroscopic redox titration with 200 μM poly-L-lysine (-7.7 mV without poly-L-lysine) of 11.7 mV. The substance further yielded a midpoint potential (vs. SHE) by spectroscopic redox titration with 200 μM poly-L-lysine (-4.9 mV without poly-L-lysine) in assay [5] of 9.6 mV. In assay [6], this substance showed a midpoint potential (vs. SHE) by spectroscopic redox titration with 200 μM poly-L-lysine (-8.4 mV without poly-L-lysine) of -2.7 mV. Also, the midpoint potential (vs. SHE) by spectroscopic redox titration, 15 μM protein with 200 μM poly-L-lysine, pH 7.0, 25°C (-3.2 mV without poly-L-lysine) in [7] was determined as 16.5 mV. The results for the half-wave potential E1/2 (vs. SHE) by cyclic voltammetry, poly-L-lysine 50~300 μM; no dependency on the poly-L-lysine concentration observed (value at 200 μM) in [8] and in assay [11] were -30.5 mV and -29 mV, respectively. The substance further came in with a half-wave potential E1/2 (vs. SHE) by cyclic voltammetry, Au electrode with β-mercaptopropionic acid, 200 μM poly-L-lysine, with Triton X-100 in assay [9] of -20.5 mV. Moreover, the half-wave potential E1/2 (vs. SHE) by cyclic voltammetry, poly-L-lysine 50~300 μM; similar concentration dependency as the wild type (value at 200 μM) in [10] is -32 mV. Also, in assay [12], the half-wave potential E1/2 (vs. SHE) by cyclic voltammetry, poly-L-lysine 50~300 μM; shifts positively and reaches a plateau at 200 μM (value at 200 μM) was -31.5 mV. Also, in [13], the half-wave potential E1/2 (vs. SHE) by cyclic voltammetry, poly-L-lysine 50~300 μM; similar concentration dependency as the wild type, with a significant negative shift (value at 200 μM) was -40.5 mV.
